T1: human GIP receptor (human) (UniProt P48546)
T1 sequence (looked up): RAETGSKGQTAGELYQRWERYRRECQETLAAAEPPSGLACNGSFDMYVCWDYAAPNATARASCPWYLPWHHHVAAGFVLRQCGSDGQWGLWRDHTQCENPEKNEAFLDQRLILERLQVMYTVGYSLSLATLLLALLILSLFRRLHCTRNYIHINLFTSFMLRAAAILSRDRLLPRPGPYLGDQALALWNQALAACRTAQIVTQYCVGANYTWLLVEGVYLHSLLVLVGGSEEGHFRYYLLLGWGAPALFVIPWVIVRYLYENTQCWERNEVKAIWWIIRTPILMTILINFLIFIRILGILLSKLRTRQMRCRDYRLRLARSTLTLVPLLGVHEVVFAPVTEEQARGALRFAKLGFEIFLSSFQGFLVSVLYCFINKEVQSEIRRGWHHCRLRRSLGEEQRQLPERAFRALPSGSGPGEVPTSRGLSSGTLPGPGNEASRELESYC

B1: Example 1091 (peptide)
chain: YXQGTFTSDXSQXLDXKAQXAFIEYLIAXGPSSGAPPPSGSEE
modifications: non-natural residues; acylated Lys C18 diacid; C-term amide; synthetic construct; SITE 2: note = 2-Aminoisobutyric Acid; SITE 10: note = 3-(4-Pyridyl)-L-alanine; SITE 13: note = alpha-methyl-leucine; SITE 16: note = L-ornithine; SITE 17: note = Lysine is chemically modified through conjugation of the epsilon-amino group of the Lysine side chain with (gamma-Gl)
B2: Example 1101 (peptide)
chain: B1 chain with A35E
modifications: non-natural residues, γGlu-C18 diacid lysine acylation, C-terminal amide; synthetic construct; SITE 2: note = 2-Aminoisobutyric Acid; SITE 10: note = 3-(4-Pyridyl)-L-alanine; SITE 13: note = alpha-methyl-leucine; SITE 16: note = L-ornithine; SITE 17: note = Lysine is chemically modified through conjugation of the epsilon-amino group of the Lysine side chain with D-Glutami
B3: Example 1090 (peptide)
chain: B1 chain with X16K, X29G, S41E
modifications: acylated Lys, C-terminal amide, non-natural residues; synthetic construct; SITE 2: note = 2-Aminoisobutyric Acid; SITE 10: note = 3-(4-Pyridyl)-L-alanine; SITE 13: note = alpha-methyl-leucine; SITE 17: note = Lysine is chemically modified through conjugation of the epsilon-amino group of the Lysine side chain with (Glu)2-(gamma-Glu)-CO-(CH2)16-CO2H; SI
B4: Example 1095 (peptide)
chain: B1 chain with A35E
modifications: non-natural residues, C-terminal amide, acylated Lys with fatty diacid; synthetic construct; SITE 2: note = 2-Aminoisobutyric Acid; SITE 10: note = 3-(4-Pyridyl)-L-alanine; SITE 13: note = alpha-methyl-leucine; SITE 16: note = L-ornithine; SITE 17: note = Lysine is chemically modified through conjugation of the epsilon-amino group of the Lysine side chain with (2-[2-(2-
B5: Example 1105 (peptide)
chain: B1 chain with Y25X, A35E
modifications: not fully specified; non-natural residues; Lys acylated γGlu-C18 diacid; C-terminal amide; synthetic construct; SITE 2: note = 2-Aminoisobutyric Acid; SITE 10: note = 3-(4-Pyridyl)-L-alanine; SITE 13: note = alpha-methyl-leucine; SITE 16: note = L-ornithine; SITE 17: note = Lysine is chemically modified through conjugation of the epsilon-amino group of the Lysine side chain with D-Glutami
B6: Example 1096 (peptide)
chain: B1 chain with A28Q, A35E
modifications: non-natural residues; lipidated Lys AEEA-γGlu-C18 diacid; C-term amide; synthetic construct; SITE 2: note = 2-Aminoisobutyric Acid; SITE 10: note = 3-(4-Pyridyl)-L-alanine; SITE 13: note = alpha-methyl-leucine; SITE 16: note = L-ornithine; SITE 17: note = Lysine is chemically modified through conjugation of the epsilon-amino group of the Lysine side chain with (2-[2-(2-
B7: Example 1089 (peptide)
chain: B1 chain with X16K, X29G, S41E
modifications: non-natural residues; acylated Lys; C-terminal amide; synthetic construct; SITE 2: note = 2-Aminoisobutyric Acid; SITE 10: note = 3-(4-Pyridyl)-L-alanine; SITE 13: note = alpha-methyl-leucine; SITE 17: note = Lysine is chemically modified through conjugation of the epsilon-amino group of the Lysine side chain with (Glu)-(gamma-Glu)-CO-(CH2)16-CO2H; SIT
B8: Example 1099 (peptide)
chain: B1 chain with Y25X, A35E
modifications: non-natural residues, AEEA-γGlu-diacid acylated Lys, C-terminal amide; synthetic construct; SITE 2: note = 2-Aminoisobutyric Acid; SITE 10: note = 3-(4-Pyridyl)-L-alanine; SITE 13: note = alpha-methyl-leucine; SITE 16: note = L-ornithine; SITE 17: note = Lysine is chemically modified through conjugation of the epsilon-amino group of the Lysine side chain with (2-[2-(2-
B9: Example 1094 (peptide)
chain: B1 chain with Y25X, A35E
modifications: non-natural residues (Aib, 4Pal, Orn, Me4Pal, αMeY); lipidated K; amide; synthetic construct; SITE 2: note = 2-Aminoisobutyric Acid; SITE 10: note = 3-(4-Pyridyl)-L-alanine; SITE 13: note = alpha-methyl-leucine; SITE 16: note = L-ornithine; SITE 17: note = Lysine is chemically modified through conjugation of the epsilon-amino group of the Lysine side chain with (gamma-Gl)
B10: Example 1092 (peptide)
chain: B1 chain with A35E
modifications: non-natural residues, acylated Lys ((γGlu)2-C18 diacid), C-terminal amide; synthetic construct; SITE 2: note = 2-Aminoisobutyric Acid; SITE 10: note = 3-(4-Pyridyl)-L-alanine; SITE 13: note = alpha-methyl-leucine; SITE 16: note = L-ornithine; SITE 17: note = Lysine is chemically modified through conjugation of the epsilon-amino group of the Lysine side chain with (gamma-Gl)
B11: Example 104 (peptide)
chain: YXQGTFTSDFSXXLDKKAQXAFIEWLLEGGXSSGAPPPSGE
modifications: synthetic construct; SITE 2: note = 2-Aminoisobutyric Acid; SITE 12: note = L-ornithine; SITE 13: note = alpha-methyl-leucine; SITE 17: note = Lysine is chemically modified through conjugation of the epsilon-amino group of the Lysine side chain with (2-[2-(2-Amino-ethoxy)-ethoxy]-acetyl)-(gamma-Glu)
B12: Example 106 (peptide)
chain: B11 chain with W25Y, E28A, X31T, A35E
modifications: synthetic construct; SITE 2: note = 2-Aminoisobutyric Acid; SITE 12: note = L-ornithine; SITE 13: note = alpha-methyl-leucine; SITE 17: note = Lysine is chemically modified through conjugation of the epsilon-amino group of the Lysine side chain with (2-[2-(2-Amino-ethoxy)-ethoxy]-acetyl)-(gamma-Glu)

Where a chain is given by its changes, count along the chain named.

Sequence of hGLP-1R (P43220 24-463): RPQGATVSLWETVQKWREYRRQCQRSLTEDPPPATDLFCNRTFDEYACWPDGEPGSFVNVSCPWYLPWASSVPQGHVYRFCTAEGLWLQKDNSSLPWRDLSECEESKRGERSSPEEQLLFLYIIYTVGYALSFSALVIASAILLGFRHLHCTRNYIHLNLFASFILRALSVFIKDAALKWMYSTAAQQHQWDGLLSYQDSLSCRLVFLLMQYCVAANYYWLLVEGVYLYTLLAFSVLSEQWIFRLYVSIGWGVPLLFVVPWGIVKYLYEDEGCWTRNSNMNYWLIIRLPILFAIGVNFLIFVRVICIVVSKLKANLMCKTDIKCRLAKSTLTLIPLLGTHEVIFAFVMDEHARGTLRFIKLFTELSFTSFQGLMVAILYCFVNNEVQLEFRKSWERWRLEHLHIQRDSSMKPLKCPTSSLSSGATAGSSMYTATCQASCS

The target of one experiment is human glucagon receptor (human) (UniProt P47871). The experiment is described as follows: cell-based or functional assay.
Sequence of human glucagon receptor (human) (P47871 26-477): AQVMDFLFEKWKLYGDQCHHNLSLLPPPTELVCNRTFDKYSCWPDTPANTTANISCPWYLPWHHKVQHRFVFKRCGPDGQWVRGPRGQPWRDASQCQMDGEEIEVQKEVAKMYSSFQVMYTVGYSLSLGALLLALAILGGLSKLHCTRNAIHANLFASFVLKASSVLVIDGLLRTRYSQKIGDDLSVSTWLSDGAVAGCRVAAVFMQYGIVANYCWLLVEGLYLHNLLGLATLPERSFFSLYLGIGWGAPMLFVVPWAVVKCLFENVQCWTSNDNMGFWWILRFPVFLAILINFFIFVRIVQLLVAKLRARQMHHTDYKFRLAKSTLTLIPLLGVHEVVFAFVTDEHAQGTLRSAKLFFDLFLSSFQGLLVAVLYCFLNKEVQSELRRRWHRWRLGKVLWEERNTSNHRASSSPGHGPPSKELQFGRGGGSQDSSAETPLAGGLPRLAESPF
Regarding B1, the Relative cAMP EC50 was 4.67 nM and the cAMP Rel EC50 (1% HSA) worked out at 550 nM.

B2 registered a Relative cAMP EC50 of 4.72 nM and a cAMP Rel EC50 (1% HSA) of 827 nM.

Regarding B3, the Relative cAMP EC50 turned out to be 15.6 nM and the cAMP Rel EC50 (1% HSA) is 2010 nM.

B4 came in with a Relative cAMP EC50 of 2.75 nM and a cAMP Rel EC50 (1% HSA) of 337 nM.

B5: the Relative cAMP EC50 worked out at 10.7 nM and the cAMP Rel EC50 (1% HSA) came out at 1260 nM.

In the case of B6, the Relative cAMP EC50 was determined as 3.94 nM and the cAMP Rel EC50 (1% HSA) worked out at 397 nM.

The molecule B7 had a Relative cAMP EC50 of 14 nM and a cAMP Rel EC50 (1% HSA) of 2580 nM.

B8 displayed a Relative cAMP EC50 of 3.47 nM and a cAMP Rel EC50 (1% HSA) of 472 nM.

In the case of B9, the Relative cAMP EC50 was 5.84 nM and the cAMP Rel EC50 (1% HSA) was 831 nM.

Turning to B10, the Relative cAMP EC50 was determined as 3.45 nM and the cAMP Rel EC50 (1% HSA) stood at 506 nM.

Consider B11, for which the Relative cAMP EC50 came out at 7.58 nM and the cAMP Rel EC50, nM (in the presence of 1% HSA) is 1260 nM.

Regarding B12, the Relative cAMP EC50 is 6.26 nM and the cAMP Rel EC50, nM (in the presence of 1% HSA) came to 2000 nM.

The next experiment addresses T1, human GIP receptor (human). The experiment is described as follows: cell-based or functional assay.
Molecule B1 showed a Relative cAMP EC50 of 0.0592 nM and a cAMP Rel EC50 (1% HSA) of 5.79 nM.

Take B2: the Relative cAMP EC50 is 0.0592 nM and the cAMP Rel EC50 (1% HSA) turned out to be 6.31 nM.

For B3, the Relative cAMP EC50 was 0.272 nM and the cAMP Rel EC50 (1% HSA) is 27.3 nM.

In turn, B4 gave a Relative cAMP EC50 of 0.065 nM and a cAMP Rel EC50 (1% HSA) of 8.73 nM.

B5 gave a Relative cAMP EC50 of 0.0427 nM and a cAMP Rel EC50 (1% HSA) of 5.59 nM.

With B6, the Relative cAMP EC50 is 0.0799 nM and the cAMP Rel EC50 (1% HSA) amounted to 11.6 nM.

Consider B7, for which the Relative cAMP EC50 stood at 0.213 nM and the cAMP Rel EC50 (1% HSA) stood at 34.6 nM.

As for B8, the Relative cAMP EC50 was 0.076 nM and the cAMP Rel EC50 (1% HSA) is 8.64 nM.

In turn, B9 displayed a Relative cAMP EC50 of 0.0515 nM and a cAMP Rel EC50 (1% HSA) of 5.86 nM.

With B10, the Relative cAMP EC50 is 0.0648 nM and the cAMP Rel EC50 (1% HSA) was 7.83 nM.

Turning to B11, the Relative cAMP EC50 was 0.251 nM and the cAMP Rel EC50, nM (in the presence of 1% HSA) turned out to be 97.5 nM.

As for B12, the Relative cAMP EC50 turned out to be 0.345 nM and the cAMP Rel EC50, nM (in the presence of 1% HSA) was 91 nM.

Another experiment concerns the target hGLP-1R (Homo sapiens, UniProt P43220). The experiment is described as follows: cell-based or functional assay.
Consider B1, for which the Relative cAMP EC50 amounted to 1.23 nM and the cAMP Rel EC50 (1% HSA) was determined as 145 nM.

B2 returned a Relative cAMP EC50 of 1.75 nM and a cAMP Rel EC50 (1% HSA) of 246 nM.

Molecule B3 returned a Relative cAMP EC50 of 5.44 nM and a cAMP Rel EC50 (1% HSA) of 619 nM.

Consider B4, for which the Relative cAMP EC50 was 1.17 nM and the cAMP Rel EC50 (1% HSA) was found to be 159 nM.

As for B5, the Relative cAMP EC50 amounted to 0.875 nM and the cAMP Rel EC50 (1% HSA) came out at 92.5 nM.

B6 came in with a Relative cAMP EC50 of 1.47 nM and a cAMP Rel EC50 (1% HSA) of 194 nM.

For B7, the Relative cAMP EC50 worked out at 2.96 nM and the cAMP Rel EC50 (1% HSA) was determined as 449 nM.

Take B8: the Relative cAMP EC50 was determined as 0.73 nM and the cAMP Rel EC50 (1% HSA) came to 75.8 nM.

For the molecule B9, the Relative cAMP EC50 is 0.623 nM and the cAMP Rel EC50 (1% HSA) came to 64.4 nM.

Molecule B10 registered a Relative cAMP EC50 of 1.33 nM and a cAMP Rel EC50 (1% HSA) of 230 nM.

As for B11, the Relative cAMP EC50 worked out at 3.39 nM and the cAMP Rel EC50, nM (in the presence of 1% HSA) came out at 698 nM.

As for B12, the Relative cAMP EC50 turned out to be 3.94 nM and the cAMP Rel EC50, nM (in the presence of 1% HSA) stood at 977 nM.

Source of the values: patent US20240270821A1, “GIP/GLP1/GCG TRI-RECEPTOR AGONISTS AND USES THEREOF” (priority 2023, published 2024).
